# Results: PMC5314801 (Nucleic Acids Research, 2016)
# Numbering of substitutions follows the chain as printed. Numbers in names are those of the source.
# T1: RsaL (crystal) (UniProt Q9X7H4 1-80)
# T1 sequence: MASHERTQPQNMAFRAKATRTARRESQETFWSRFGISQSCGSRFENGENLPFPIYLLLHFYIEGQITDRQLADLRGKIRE
# B1: RsaL (natural protein, Pseudomonas aeruginosa, UniProt Q9X7H4 1-80, looked up)
# chain: T1 sequence
# B2: RsaL^Q38A (natural protein, Pseudomonas aeruginosa, UniProt Q9X7H4 1-80, looked up)
# chain: T1 sequence with Q38A
# B3: RsaL^Q27A (natural protein, Pseudomonas aeruginosa, UniProt Q9X7H4 1-80, looked up)
# chain: T1 sequence with Q27A
# B4: RsaL^R43A (natural protein, Pseudomonas aeruginosa, UniProt Q9X7H4 1-80, looked up)
# chain: T1 sequence with R43A
# B5: RsaL R20A (natural protein, Pseudomonas aeruginosa, UniProt Q9X7H4 1-80, looked up)
# chain: T1 sequence with R20A
# B6: RsaL with Glu45 mutated to Ala (natural protein, Pseudomonas aeruginosa, UniProt Q9X7H4 1-80, looked up)
# chain: T1 sequence with E45A
# B7: lasI promoter crystal duplex DNA_F/DNA_R (dsDNA)
# DNA 1: AAAAATTATGAAATTTGCATAAATTC
# DNA 2: TGAATTTATGCAAATTTCATAATTTT
# Columns and labels:
# crystal structure = molecular target: the molecule itself; experiment: crystal structure
# SEC = molecular target: the molecule itself; experiment: SEC
# RsaL (crystal) = molecular target: T1, RsaL (crystal); experiment: X-ray crystallography
Binder,stoichiometry N (SEC),further results
B1,–,binding result (crystal structure): binds
B2,2,–
B3,2,–
B4,2,–
B5,2,–
B6,2,–
B7,–,binding result (RsaL (crystal)): binds
